The values that follow come from US6905854B2, “Mutated penicillin expandase and process for preparing 7-ADCA using the same” (Synmax Biochemical Co., Ltd., priority 2002, dated 2005).

Where a chain is given by its changes, count along the chain named. Names and notes keep the numbering of the source.

Broadly, the Km is the substrate concentration at which the rate is half of its maximum.

B1: YS49: mutated penicillin expandase (DAOCS) with substitution L277K (protein, UniProt P18548 1-311, looked up, variant L277K)
Deacetoxycephalosporin C …: MDTTVPTFSLAELQQGLHQDEFRRCLRDKGLFYLTDCGLTDTELKSAKDLVIDFFEHGSEAEKRAVTSPVPTMRRGFTGLESESTAQITNTGSYSDYSMCYSMGTADNLFPSGDFERIWTQYFDRQYTASRAVAREVLRATGTEPDGGVEAFLDCEPLLRFRYFPQVPEHRSAEEQPLRMAPHYDLSMVTLIQQTPCANGFVSLQAEVGGAFTDLPYRPDAVLVFCGAIATLVTGGQVKAPRHHVAAPRRDQIAGSSRTSSVFFLRPNADFTFSVPKARECGFDVSLDGETATFQDWIGGNYVNIRRTSKA
B2: YS12: mutated penicillin expandase (DAOCS) with substitution N304K (protein, UniProt P18548 1-311, looked up, variant N304K)
Deacetoxycephalosporin C …: B1 Deacetoxycephalosporin C … with K277L, N304K
B3: YS8: mutated penicillin expandase (DAOCS) with substitution I305L (protein, UniProt P18548 1-311, looked up, variant I305L)
Deacetoxycephalosporin C …: B1 Deacetoxycephalosporin C … with K277L, I305L
B4: YS16: wild-type expandase (DAOCS, cefE gene) from Streptomyces clavuligerus, parent strain (protein, UniProt P18548 1-311, looked up)
Deacetoxycephalosporin C …: B1 Deacetoxycephalosporin C … with K277L
B5: YS11: mutated penicillin expandase (DAOCS) with substitution I305M (protein, UniProt P18548 1-311, looked up, variant I305M)
Deacetoxycephalosporin C …: B1 Deacetoxycephalosporin C … with K277L, I305M
B6: YS67: mutated penicillin expandase (DAOCS) with substitutions V275I and I305M (protein, UniProt P18548 1-311, looked up, variant V275I I305M)
Deacetoxycephalosporin C …: B1 Deacetoxycephalosporin C … with V275I, K277L, I305M
B7: YS81: combined DAOCS mutant, mutated sites 275I, 281Y, 305M (protein, UniProt P18548 1-311, looked up, variant V275I C281Y I305M)
Deacetoxycephalosporin C …: B1 Deacetoxycephalosporin C … with V275I, K277L, C281Y, I305M

The nature of one data set: Kinetic assay of purified DAOCS with penicillin N as main substrate. The settings on record: for penicillin N; 0.5 μg purified DAOCS, 30° C., 10 minutes. Format: biochemical. The protocol: (§1) The cell extract (2 ml) of a candidate mutant was applied onto a HiTrap Q column (5 ml) pre-equilibrated with buffer B (50 mM Mops/pH 7.5, 1 mM DTT, 0.4 mM pefabloc SC, and 0.5 μg/ml leupeptin). Then, the column was washed with 20 ml of buffer B, followed by a further wash with 25 ml of buffer B containing 120 mM NaCl, and DAOCS was eluted off with 20 ml of buffer B containing 150 mM NaCl. The DAOCS containing fractions were pooled (10 ml), concentrated by UF 15 device (NMWL 5K; Millipore), and loaded onto a Hiload Superdex 75 (16/60) column pre-equilibrated with buffer B at a flow rate of 1 ml/min.
(§2) The standard penicillin G assay was followed for kinetic assay, but 20 μg of purified DAOCS was used and the concentration of α-ketoglutarate was reduced to 1 mM. Kinetic parameters were obtained from triplicate experiments by Hanes-Woolf Plot. For assays using penicillin N as a main substrate, a total volume of 240 μl reaction containing 50 mM Hepes/pH 7.5, 0.4 mM ascorbate, 0.1 mM FeSO4, 0.1 mM α-ketoglutarate, 0.1 mM penicillin N and 0.5 μg of purified DAOCS was incubated at 30° C. for 10 minutes, then the same volume of 10 mM EDTA/pH 7.5 was added, and the mixture was subjected to ultrafiltration with UF 0.5 device (NMWL 5000, Millipore). The filtrate was analyzed by HPLC using 25 mM potassium phosphate/pH 6.5 as a mobile phase. The retention time of DAOC and penicillin N was 12 minutes and 13.5 minutes, respectively The results of kinetic parameters are shown in Table 1, wherein the definition and calculation of the parameters are described in Lehninger et al. Principles of Biochemistry, 2nd Ed. Worth Publishers, New York (1993) which is incorporated herein for reference.
Turning to B1, the kcat is 0.220 ± 0.042 S^−1.
In the case of B2, the kcat is on record as 0.366 ± 0.023 S^−1.
Same read-out and setting: as for B3, the figure is 0.284 ± 0.030 S^−1.
Still for that read-out and setting: the same measure for B4: 0.307 ± 0.038 S^−1.
On the same count and under the same terms, the same measure for B5: 0.310 ± 0.004 S^−1; for B6: 0.316 ± 0.032 S^−1.

Staying with this data set, now noted: for penicillin N; 0.5 μg purified DAOCS, 30° C., 10 minutes; triplicate, Hanes-Woolf Plot.
Regarding B1, the Km is 11 ± 5 µM.
With B2, the Km was 4 ± 1 µM.
Still for that read-out and setting: the same measure for B3: 6 ± 2 µM.
For B4, the Km turned out to be 14 ± 6 µM.
As for B5, the Km stood at 12 ± 1 µM.
Still for that read-out and setting: as for B6, the figure is 13 ± 5 µM.

Still in this data set, the particulars now being: penicillin N; compared to wild-type YS16.
With B2, the “expansion activity on penicillin N, folds higher than wild-type YS16” value turned out to be 4 folds.

A short description of the next data set: Kinetic assay of purified DAOCS with penicillin G (standard penicillin G assay, HPLC of cephalosporin G). Format: biochemical. The settings on record: for penicillin G; 20 μg purified DAOCS, 1 mM α-ketoglutarate, 30° C. The protocol: (§3) For penicillin G, 20 μl of cell extracts was added into a standard 200 μl assay reaction containing 50 mM Mops/pH 7.5, 4 mM ascorbate, 1 mM FeSO4, 4 mM α-ketoglutarate and 7 mM penicillin G, and incubated at 30° C. for 20 minutes. The reaction was stopped by addition of 200 μl of ethanol, followed by a centrifugation at 15,000×g for 5 minutes. The concentration of cephalosporin G in supernatant was analyzed by HPLC with 40 μl injection. The mobile phase was 25 mM potassium phosphate/pH 6.5 with 19% acetonitrile at a flow rate of 1 ml/min. The retention time for cephalosporin G was 8.5 minutes and 12.5 minutes for penicillin G with detection at 215 nm, and the product at 8.5 minutes in DAOCS reaction was confirmed by ESI-LC/MS (positive): [M+H]^+=333. […] The different combinations of the mutated amino acids mentioned above were also constructed by site-directed mutagenesis.
as §1, §2
As to B1, the kcat is on record as 0.0514 ± 0.0008 S^−1.
The same measure, in the same setting: the same measure for B2: 0.0564 ± 0.0003 S^−1; for B3: 0.0759 ± 0.0015 S^−1; for B4: 0.0453 ± 0.0010 S^−1.
B5: the kcat came to 0.1452 ± 0.0020 S^−1.
For the molecule B6, the kcat was 0.1458 ± 0.0038 S^−1.

The data set is the same for the next values; noted with them: for penicillin G; 20 μg purified DAOCS, 1 mM α-ketoglutarate, 30° C.; triplicate, Hanes-Woolf Plot.
Regarding B1, the Km stood at 720 ± 20 µM.
The same measure, in the same setting: as for B2, the figure is 220 ± 30 µM; as for B3, 660 ± 70 µM; as for B4, 2580 ± 220 µM.
Still for that read-out and setting: the same measure for B5: 750 ± 40 µM.
Same read-out and setting: as for B6, the figure is 250 ± 80 µM.

A short description of another data set: Relative activity of purified combined mutants compared to wild type DAOCS. Format: biochemical. The settings on record: 1 mM penicillin G; activity of wild-type DAOCS as 100%. The protocol: as §3, §2
The relative activities of the mutants are determined according to Chin H. S. et al supra with the activity of wild-type DAOCS as 100% and shown in Table 2. The assay was performed with 1 mM penicillin G, and the other conditions were the same as standard assay.
For the molecule B4, the “Relative Activities” value is 100%.
Same read-out and setting: as for B7, the figure is 1290%.
On the same count and under the same terms, the same measure for B6: 500%.

A further data set can be described thus: DAOCS activity assay with cell extracts. It counts as biochemical. The settings on record: 20 μl cell extract, 7 mM penicillin G, 30° C., 20 minutes. The protocol: BL21(DE3) transformants were grown overnight in 5 ml of LB medium with 50 μg/ml kanamycin at 30° C. This culture was used to inoculate 100 ml of the same medium and grown at 30° C. for 1 hour. Then 0.1 mM IPTG was added to induce DAOCS indirectly at 30° C. for 4 hours. Cells were harvested, washed with buffer A (50 mM Mops/pH 7.5, 1 mM PMSF, 1 mM DTT, and 0.5 μg/ml leupeptin), lysed by sonication (VCX 750; Sonics & Materials, USA), and centrifuged at 15,000×g for 15 minutes. The supernatant was used as a cell extract.
as §3
Regarding B1, the “expandase activity on penicillin G compared to parent strain YS16” value is “higher expandase activities on penicillin G than the parent strain YS16”.
The same measure, in the same setting: the same measure for B2: “higher expandase activities on penicillin G than the parent strain YS16”.
Still for that read-out and setting: as for B3, the entry is “higher expandase activities on penicillin G than the parent strain YS16”; as for B5, “higher expandase activities on penicillin G than the parent strain YS16”.
